Measured values as given in PMC7940618, “Specific inhibition of the Survivin–CRM1 interaction by peptide-modified molecular tweezers” (Nature Communications, 2021).

Assays:
[1] = biological target: TW-ELTL (asymmetrical molecular tweezer linked to the short peptide ELTL) (human); experiment: ITC; tweezer conjugate (100 µM) in the cell, Survivin120 (1.2 mM WT or 2.5 mM K90/103T) in the syringe; PBS pH 7.4, 25 °C; one set of sites model
[2] = biological target: TW-ELTLGEFL (asymmetrical molecular tweezer linked to the elongated peptide ELTLGEFL) (human); experiment: as above
[3] = biological target: TW-ELTL-FAM (human); experiment: fluorescence polarisation; fluorescence anisotropy; 200 nM FAM-labeled tweezer titrated with Survivin120 (to 180 µM) or K90/103T (to 350 µM); PBS pH 7.4, 25 °C; single-site model
[4] = biological target: TW-ELTLGEFL-FAM (human); experiment: as above
[5] = biological target: Survivin142-HA (human) (UniProt O15392); experiment: pull-down; competition in the pull-down of a5: 293T lysate with Survivin142-HA preincubated 1 h with 10 nM to 200 µM tweezer conjugate before GST-CRM1, RanQ69L and dGTP
[6] = biological target: Atto488-labeled Survivin120 (human) (UniProt O15392); experiment: fluorescence polarisation; fluorescence anisotropy competition; Atto488-Survivin120 preincubated with CRM1_1-1062VLV430AAA at 1:5, titrated with tweezers to approx. 180 µM; PBS pH 7.4, 25 °C; n = 1
Atto488-labeled Survivin120 (human), sequence (O15392 1-120): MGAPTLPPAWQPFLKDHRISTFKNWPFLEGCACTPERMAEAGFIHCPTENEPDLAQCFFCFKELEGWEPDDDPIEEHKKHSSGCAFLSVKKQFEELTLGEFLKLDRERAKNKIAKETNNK

Survivin142-HA (human), sequence (O15392 whole entry): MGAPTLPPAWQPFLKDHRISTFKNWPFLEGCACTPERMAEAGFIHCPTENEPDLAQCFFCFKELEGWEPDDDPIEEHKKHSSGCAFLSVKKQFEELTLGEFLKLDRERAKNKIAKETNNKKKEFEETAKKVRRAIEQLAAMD

In the case of “Survivin120 K90/103T (from UniProt O15392 1-120) (domain or fragment)”, the Kd [1] is reported as 50 µM, the stoichiometry N (ligand/protein) [1] is reported as 1 and the Kd [2] is reported as 36 µM. It also gave a stoichiometry N (ligand/protein) [2] of 1, a Kd [3] of 240 µM and a Kd [4] of 92 µM.
“TW-ELTL (asymmetrical molecular tweezer linked to the short peptide ELTL)” showed a concentration required to disrupt the Survivin–CRM1 complex [5] of 10 to 50 µM and an IC50 [6] of 39 µM.
